Reference: patent publication US20230235004A1 (published 2023)

T1: human MAdCAM expressed on cells (human, UniProt Q13477 19-382)
T1 construct: whole, on cells
T1 sequence (looked up): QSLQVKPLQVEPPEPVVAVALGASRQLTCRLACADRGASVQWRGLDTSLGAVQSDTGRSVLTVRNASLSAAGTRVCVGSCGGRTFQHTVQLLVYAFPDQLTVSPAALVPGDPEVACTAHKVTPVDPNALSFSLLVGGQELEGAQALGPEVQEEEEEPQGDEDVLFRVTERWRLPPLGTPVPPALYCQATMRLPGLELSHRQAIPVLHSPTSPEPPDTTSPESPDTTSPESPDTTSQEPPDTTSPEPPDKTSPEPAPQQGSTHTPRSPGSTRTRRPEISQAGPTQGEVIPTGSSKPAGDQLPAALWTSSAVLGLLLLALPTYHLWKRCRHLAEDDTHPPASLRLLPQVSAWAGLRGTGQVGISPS

T2: mouse MAdCAM expressed on cells (mouse, UniProt Q61826 22-405)
T2 construct: whole, on cells
T2 sequence (looked up): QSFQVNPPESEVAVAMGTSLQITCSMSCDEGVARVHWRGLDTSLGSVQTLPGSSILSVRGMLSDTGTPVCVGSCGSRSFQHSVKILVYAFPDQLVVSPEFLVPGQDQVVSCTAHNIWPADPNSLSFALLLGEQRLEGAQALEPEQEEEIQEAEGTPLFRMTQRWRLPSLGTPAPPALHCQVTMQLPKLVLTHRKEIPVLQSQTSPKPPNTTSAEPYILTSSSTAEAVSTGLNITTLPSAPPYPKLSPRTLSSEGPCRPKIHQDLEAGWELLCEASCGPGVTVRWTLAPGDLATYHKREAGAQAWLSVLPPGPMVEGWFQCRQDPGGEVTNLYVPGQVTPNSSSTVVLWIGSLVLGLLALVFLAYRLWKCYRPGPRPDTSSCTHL


Key:
[1] = target: T1, human MAdCAM expressed on cells; assay: cell binding
[2] = target: T2, mouse MAdCAM expressed on cells; assay: cell binding

| Binder | binding result [1] | binding result [2] |
| --- | --- | --- |
| MAdCAM antibody Table 1 clone 55 (scFv) scFv: QVQLVQSGAEVKKPGASVKVSCKASGYTFTSYYMHWVRQAPGQGLEWMGIIDPSGGSTSYAQKFQGRVTMTRDTSTSTVYMELSSLRSEDTAVYYCAREEWSSGGVGYFDYWGQGTLVTVSSGGGGSGGGGSGGGGSGGGGSDIQMTQSPSSLSASVGDRVTITCRASQGISSYLAWYQQKPGKAPKLLIYATSSLQTGVPSRFSGSGSGTDFTLTISSLQPEDFATYYCQQTYSIPITFGQGTRLEIK | binds | no binding |
| MAdCAM antibody Table 1 clone 58 (scFv) scFv: QVQLVQSGAEVKKPGASVKVSCKASGYTFTGYYMHWVRQAPGQGLEWMGIINPSGGNTKYAQKFQGRVTMTRDTSTSTVYMELSSLRSEDTAVYYCTTADYYYYMDVWGKGTTVTVSSGGGGSGGGGSGGGGSGGGGSDIQMTQSPSSLSASVGDRVTITCRASQGISNYLAWYQQKPGKAPKLLIYAASSLQSGVPSRFSGSGSGTDFTLTISSLQPEDFATYYCQQYYSNADFGQGTKVEIK | binds | no binding |
| MAdCAM antibody Table 1 clone 52 (scFv) scFv: EVQLLESGGGLVQPGGSLRLSCAASGFTFSNSDMNWVRQAPGKGLEWVAHIWNDGSQKYYADSVKGRFTISRDNSKNTLYLQMNSLRAEDTAVYYCARDRTDPGYSSAMDVWGQGTTVTVSSGGGGSGGGGSGGGGSGGGGSDIQMTQSPSSLSASVGDRVTITCRASQDIRNYLGWYQQKPGKAPKLLIYDASSLETGVPSRFSGSGSGTDFTLTISSLQPEDFATYYCQQATSLPLTFGGGTKVEIK | binds | no binding |
| MAdCAM antibody Table 1 clone 11 (scFv) scFv: QVQLVQSGAEVKKPGASVKVSCKASGYTFTTYYMHWVRQAPGQGLEWMGGFDPEDGETIYAQKFQGRVTMTRDTSTSTVYMELSSLRSEDTAVYYCARHAVAGAVGAGYYYYGMDVWGQGTMVTVSSGGGGSGGGGSGGGGSGGGGSDIQMTQSPSSLSASVGDRVTITCRASESISNWLAWYQQKPGKAPKLLIYAASTLQSGVPSRFSGSGSGTDFTLTISSLQPEDFATYYCQQSYSVPFTFGPGTKVDIK | binds | no binding |
| MAdCAM antibody Table 1 clone 57 (scFv) scFv: QVQLVQSGAEVKKPGASVKVSCKASGYTFTSYYMHWVRQAPGQGLEWMGIINPSGGSTSYAQKFQGRVTMTRDTSTSTVYMELSSLRSEDTAVYYCARDSVAGTGGRYYGMDVWGQGTLVTVSSGGGGSGGGGSGGGGSGGGGSDIQMTQSPSSLSASVGDRVTITCRASQGISNYFAWYQQKPGKAPKLLIYAASSLQGGVPSRFSGSGSGTDFTLTISSLQPEDFATYYCQQSYSLPYTFGQGTKLEIK | binds | no binding |
| MAdCAM antibody Table 1 clone 3 (scFv) scFv: QVQLVQSGAEVKKPGASVKVSCKASGYPFIGQYLHWVRQAPGQGLEWMGIINPSGGSTSYAQKFQGRVTMTRDTSTSTVYMELSSLRSEDTAVYYCAREGRLSYGMDAWGQGTLVTVSSGGGGSGGGGSGGGGSGGGGSDIQMTQSPSSLSASVGDRVTITCRASQSISSYLAWYQQKPGKAPKLLIYGASTLESGVPSRFSGSGSGTDFTLTISSLQPEDFATYYCQQTWGPPFTFGQGTKLEIK | binds | binds |
| MAdCAM antibody Table 1 clone 13 (scFv) scFv: EVQLLESGGGLVQPGGSLRLSCAASGFTFDDYAMHWVRQAPGKGLEWVSYIDASGTTIYYADSVKGRFTISRDNSKNTLYLQMNSLRAEDTAVYYCAKDQAAAGYWYFDLWGRGTLVTVSSGGGGSGGGGSGGGGSGGGGSDIQMTQSPSSLSASVGDRVTITCQASQDISNYLNWYQQKPGKAPKLLIYKASTLESGVPSRFSGSGSGTDFTLTISSLQPEDFATYYCQQSYSTPITFGQGTRLEIK | binds | no binding |
| MAdCAM antibody Table 1 clone 53 (scFv) scFv: QVQLVQSGAEVKKPGASVKVSCKASGYTFTSYDINWVRQAPGQGLEWMGWMNPNSGNTGYAQKFQGRVTMTRDTSTSTVYMELSSLRSEDTAVYYCAKDSDYSNLLWDYWGQGTLVTVSSGGGGSGGGGSGGGGSGGGGSDIQMTQSPSSLSASVGDRVTITCRASQDITNDLGWYQQKPGKAPKLLIYQASSLESGVPSRFSGSGSGTDFTLTISSLQPEDFATYYCQQSYTIPLTFGQGTKVEIK | binds | no binding |
| MAdCAM antibody Table 1 clone 12 (scFv) scFv: QVQLVQSGAEVKKPGASVKVSCKASGYTFTGYYMHWVRQAPGQGLEWMGWIGPNSGDTNYAQKFQGRVTMTRDTSTSTVYMELSSLRSEDTAVYYCARDLDHNWYFDLWGRGTLVTVSSGGGGSGGGGSGGGGSGGGGSDIVMTQSPLSLPVTPGEPASISCRSSQSLLHSNGYNYLDWYLQKPGQSPQLLIYSSSNRAPGVPDRFSGSGSGTDFTLKISRVEAEDVGVYYCMQALHIPLTFGGGTKVEIK | binds | no binding |
| MAdCAM antibody Table 1 clone 14 (scFv) scFv: QVQLVQSGAEVKKPGSSVKVSCKASGYTFTDYHIHWVRQAPGQGLEWMGGIVPRSGSTTYAQKFQGRVTITADESTSTAYMELSSLRSEDTAVYYCAKDESSGWYYFDYWGQGTLVTVSSGGGGSGGGGSGGGGSGGGGSDIVMTQSPLSLPVTPGEPASISCRSSQSLLHSNGYNYLDWYLQKPGQSPQLLIYSAYNRASGVPDRFSGSGSGTDFTLKISRVEAEDVGVYYCMQALQTPLTFGQGTKVEIK | binds | no binding |
| MAdCAM antibody Table 1 clone 15 (scFv) scFv: QVQLVQSGAEVKKPGSSVKVSCKASGYTFTNYYMHWVRQAPGQGLEWMGGIIPIVDRVKYAQKFQGRVTITADESTSTAYMELSSLRSEDTAVYYCAKGRYTVNYYYGMDVWGQGTTVTVSSGGGGSGGGGSGGGGSGGGGSDIQMTQSPSSLSASVGDRVTITCQANQDISNYLNWYQQKPGKAPKLLIYRASKLEAGVPSRFSGSGSGTDFTLTISSLQPEDFATYYCQQSSEIPYSFGQGTKLEIK | binds | no binding |
| MAdCAM antibody Table 1 clone 54 (scFv) scFv: EVQLLESGGGLVQPGGSLRLSCAASGFTFGDYAMSWVRQAPGKGLEWVAVVSYDGTNKYYADSVKGRFTISRDNSKNTLYLQMNSLRAEDTAVYYCAKDICSSTSCYFDLWGRGTLVTVSSGGGGSGGGGSGGGGSGGGGSDIQMTQSPSSLSASVGDRVTITCRASQNINNYVNWYQQKPGKAPKLLIYDASNLETGVPSRFSGSGSGTDFTLTISSLQPEDFATYYCQQANSFPPTFGQGTRLEIK | binds | no binding |
